Measurements: CN114652851A (STONE BIOPHARMACEUTICAL CO LTD, dated 2022)

Molecular target: T1, Human TROP2蛋白 (human, UniProt P09758 27-274, limits assumed)
T1 construct: also called 人TROP2
T1 sequence (looked up): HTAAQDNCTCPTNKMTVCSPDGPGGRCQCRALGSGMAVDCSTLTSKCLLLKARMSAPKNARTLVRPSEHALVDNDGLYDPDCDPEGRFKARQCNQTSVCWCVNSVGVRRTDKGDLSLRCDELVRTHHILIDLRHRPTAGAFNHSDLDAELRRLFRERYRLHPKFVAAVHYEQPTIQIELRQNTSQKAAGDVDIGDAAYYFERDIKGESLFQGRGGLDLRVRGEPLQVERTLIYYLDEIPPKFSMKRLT
Assay: ELISA, TROP2 protein incubated with antibody dilutions, goat anti-human IgG (H+L) secondary antibody

B1: SY02人源化抗体 (人源化抗TROP2抗体SY02) (antibody, human IgG1, kappa, V domains shown)
VH: QVQLVQSGAEVKKPGSSVKVSCKASGYTFTDYSINWVRQAPGQGLEWMGVISTYYGDASYNQKFKGRVTITADESTSTAYMELSSLRSEDTAVYYCARYGDGYNQFDYWGQGTLVTVSS
VL: DIQMTQSPSSLSASVGDRVTITCRVSESVDSYGNNFMHWYQQKPGKAPKLLIYRASNLESGVPSRFSGSGSGTDFTFTISSLQPEDIATYYCQQSYEDPYTFGGGTKLEIKR
notes: also called 裸抗SY02
  binding result: binds
